Patent publication US20090221029
Where two headings read alike, the source gives them in different places.

T1: Pyrococcus furiosus PCNA
T1 sequence: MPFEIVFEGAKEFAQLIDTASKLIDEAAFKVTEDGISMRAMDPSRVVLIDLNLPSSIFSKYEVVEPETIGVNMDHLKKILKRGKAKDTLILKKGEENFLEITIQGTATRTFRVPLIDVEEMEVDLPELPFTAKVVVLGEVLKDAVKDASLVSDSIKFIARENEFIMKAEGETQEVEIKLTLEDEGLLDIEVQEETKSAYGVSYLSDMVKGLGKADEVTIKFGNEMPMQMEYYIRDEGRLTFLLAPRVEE

T2: Pyrococcus furiosus PCNA
T2 chain: T1 sequence

B1: P. furiosus pol II DNA polymerase (recombinant CBP-DP1/DP2) (protein)
chain 1: MDEFVKSLLKANYLITPSAYYLLREYYEKGEFSIVELVKFARSRESYIITDALATEFLKVKGLEPILPVETKGGFVSTGESQKEQSYEESFGTKEEISQEIKEGESFISTGSEPLEEELNSIGIEEIGANEELVSNGNDNGGEAIVFDKYGYPMVYAPEEIEVEEKEYSKYEDLTIPMNPDFNYVEIKEDYDVVFDVRNVKLKPPKVKNGNGKEGEIIVEAYASLFRSRLKKLRKILRENPELDNVVDIGKLKYVKEDETVTIIGLVNSKREVNKGLIFEIEDLTGKVKVFLPKDSEDYREAFKVLPDAVVAFKGVYSKRGILYANKFYLPDVPLYRRQKPPLEEKVYAILISDIHVGSKEFCENAFIKFLEWLNGNVETKEEEEIVSRVKYLIIAGDVVDGVGVYPGQYADLTIPDIFDQYEALANLLSHVPKHITMFIAPGNHDAARQAIPQPEFYKEYAKPIYKLKNAVIISNPAVIRLHGRDFLIAHGRGIEDVVGSVPGLTHHKPGLPMVELLKMRHVAPMFGGKVPIAPDPEDLLVIEEVPDVVHMGHVHVYDAVVYRGVQLVNSATWQAQTEFQKMVNIVPTPAKVPVVDIDTAKVVKVLDFSGWC
chain 2: MELPKEIEEYFEMLQREIDKAYEIAKKARSQGKDPSTDVEIPQATDMAGRVESLVGPPGVAQRIRELLKEYDKEIVALKIVDEIIEGKFGDFGSKEKYAEQAVRTALAILTEGIVSAPLEGIADVKIKRNTWADNSEYLALYYAGPIRSSGGTAQALSVLVGDYVRRKLGLDRFKPSGKHIERMVEEVDLYHRAVSRLQYHPSPDEVRLAMRNIPIEITGEATDDVEVSHRDVEGVETNQLRGGAILVLAEGVLQKAKKLVKYIDKMGIDGWEWLKEFVEAKEKGEEIEESESKAEESKVETRVEVEKGFYYKLYEKFRAEIAPSEKYAKEIIGGRPLFAGPSENGGFRLRYGRSRVSGFATWSINPATMVLVDEFLAIGTQMKTERPGKGAVVTPATTAEGPIVKLKDGSVVRVDDYNLALKIRDEVEEILYLGDAIIAFGDFVENNQTLLPANYVEEWWIQEFVKAVNEAYEVELRPFEENPRESVEEAAEYLEVDPEFLAKMLYDPLRVKPPVELAIHFSEILEIPLHPYYTLYWNTVNPKDVERLWGVLKDKATIEWGTFRGIKFAKKIEISLDDLGSLKRTLELLGLPHTVREGIVVVDYPWSAALLTPLGNLEWEFKAKPFYTVIDIINENNQIKLRDRGISWIGARMGRPEKAKERKMKPPVQVLFPIGLAGGSSRDIKKAAEEGKIAEVEIAFFKCPKCGHVGPETLCPECGIRKELIWTCPKCGAEYTNSQAEGYSYSCPKCNVKLKPFTKRKIKPSELLNRAMENVKVYGVDKLKGVMGMTSGWKIAEPLEKGLLRAKNEVYVFKDGTIRFDATDAPITHFRPREIGVSVEKLRELGYTHDFEGKPLVSEDQIVELKPQDVILSKEAGKYLLRVARFVDDLLEKFYGLPRFYNAEKMEDLIGHLVIGLAPHTSAGIVGRIIGFVDALVGYAHPYFHAAKRRNCDGDEDSVMLLLDALLNFSRYYLPEKRGGKMDAPLVITTRLDPREVDSEVHNMDVVRYYPLEFYEATYELKSPKELVGVIERVEDRLGKPEMYYGIKFTHDTDDIALGPKMSLYKQLGDMEEKVKRQLTLAERIRAVDQHYVAETILNSHLIPDLRGNLRSFTRQEFRCVKCNTKYRRPPLDGKCPVCGGKIVLTVSKGAIEKYLGTAKMLVANYNVKPYTRQRICLTEKDIDSLFEYLFPEAQLTLIVDPNDICMKMIKERTGETVQGGLLENFNSSGNNGKKIEKKEKKAKEKPKKKKVISLDDFFSKR

Assays:
[1] = test system: T1, Pyrococcus furiosus PCNA
[2] = target: T2, Pyrococcus furiosus PCNA

| Molecule | dNTP incorporation into primed M13 DNA [1] | dNTP incorporation into primed M13 DNA [2] |
| --- | --- | --- |
| cloned Pfu DNA polymerase (Pyrococcus furiosus pol I) | PCNA was shown to stimulate dNTP incorporation by both Pfu (pol I) and P. furiosus pol II DNA polymerases |  |
| B1 |  | PCNA was shown to stimulate dNTP incorporation by both Pfu (pol I) and P. furiosus pol II DNA polymerases |
